Experimental data published in the supplement of paper PMC12042874.
± gives the uncertainty stated by the source.

Assay: amyloid nucleation score (Sup35N fusion, yeast selection) (log enrichment); library NNK3; higher = more nucleation; inactive = no reads after selection
How it was run: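 The nucleation score equals the log enrichment of output over input reads from DiMSum, centred on the mode score of non-aggregating sequences. It was computed only for sequences with 100 or more input reads. The reads came from Illumina sequencing of plasmid inserts from psi-negative yeast expressing Sup35N fused to peptides of 20 random codons, induced with 100 μM copper sulfate for 24 hours and grown 7 days at 30°C without adenine and uracil.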

HVFFMKTEEPCTPEY
amyloid nucleation score: inactive

HVLGRKLFHGVAVVLFSCEL
amyloid nucleation score: inactive

HVSGVIYVVGNN
amyloid nucleation score: inactive

HVYLAQGL
amyloid nucleation score: inactive

HVYNLLRVVF
amyloid nucleation score: inactive

HWCTSKFIKPNGYPREERRV
amyloid nucleation score: inactive

HWFLYLPFSPYCIPRIPDYL
amyloid nucleation score: inactive

HWFRTGDMGVDFTVEACDWL
amyloid nucleation score: inactive

HWHRLTSCGSRLGTGVHVVL
amyloid nucleation score: inactive

HWILSTPCLNVV
amyloid nucleation score: inactive

HWLRCHEVEKVLVL
amyloid nucleation score: inactive

HWNCGVTNSGEFFALAVGFI
amyloid nucleation score: inactive

HWPCLNSYEAIVFFCGMDSH
amyloid nucleation score: inactive

HWQYCLIFNQYVLKLCATHC
amyloid nucleation score: 1.04 ± 0.16

HWSHNLQFIFFYSYVGLANE
amyloid nucleation score: 1.96 ± 0.077

HYDFWIISYLPRSPGNMAID
amyloid nucleation score: inactive

HYMFSVVNVSGDCFFLSESN
amyloid nucleation score: 3.24 ± 0.071

HYSLNASIYSTCTRTSMNPV
amyloid nucleation score: -0.136 ± 0.53

HYSLSQDISDSNGLQLLFLL
amyloid nucleation score: 2.1 ± 0.075

HYYVDNPD
amyloid nucleation score: inactive

IADSKHTNCFRYMSHVW
amyloid nucleation score: inactive

IAEGFNTVGDLWNIGCCDSG
amyloid nucleation score: 0.154 ± 0.33

IAGKIEIIVVRCYSLVGPCT
amyloid nucleation score: 0.305 ± 0.19

IAPYGRGWKDYLIDSEHVRT
amyloid nucleation score: inactive

IARINGMLASSGVASTM
amyloid nucleation score: inactive

IASAYLSVLRYPFRIAKGLI
amyloid nucleation score: inactive

IATLEDFMFPLFWYCIYLTN
amyloid nucleation score: inactive

IAVCTRAMASNRLGFQYRNG
amyloid nucleation score: inactive

IAVQLEILAY
amyloid nucleation score: inactive

IAYIT
amyloid nucleation score: inactive

ICAGLWAD
amyloid nucleation score: inactive

ICCKYGDAKRLVCWSQKSRK
amyloid nucleation score: inactive

ICDFCQQCSVNERKTLNYSA
amyloid nucleation score: inactive

ICDKRWVC
amyloid nucleation score: inactive

ICISKRYWHDIAFCIGYSNE
amyloid nucleation score: 1.29 ± 0.12

ICLILARINPSIRDLLG
amyloid nucleation score: 0.298 ± 0.74

ICNFHSSRPLNIS
amyloid nucleation score: inactive

ICPIMNCVFFHRTDQSLSFN
amyloid nucleation score: 2.29 ± 0.05

ICTLCNVSRLLWSPRDKNAF
amyloid nucleation score: 2.93 ± 0.063

ICWKRCHG
amyloid nucleation score: inactive

ICYIPY
amyloid nucleation score: inactive

ICYTLVTN
amyloid nucleation score: inactive

IDQDFMTVIRQS
amyloid nucleation score: inactive

IDRHAPSEESVPFWSYWNNG
amyloid nucleation score: inactive

IDSCLQNSP
amyloid nucleation score: inactive

IDSLSAIGKSWTQGESRSDR
amyloid nucleation score: inactive

IDVSCMQNNILRRIGFHV
amyloid nucleation score: inactive

IEAVCNSWRIYGM
amyloid nucleation score: inactive

IEHSQYPAQAKPRLGSCLVL
amyloid nucleation score: inactive

IENRFVSFLYL
amyloid nucleation score: 1.88 ± 0.075

IERLDNSIVNVMWILSGCKA
amyloid nucleation score: inactive

IEVLKNLRMVTGLVTL
amyloid nucleation score: inactive

IEWACVKQMYSHRALLRERR
amyloid nucleation score: inactive

IFCMFYGSMQAQTIKCNVTH
amyloid nucleation score: 1.19 ± 0.093

IFDLWLRLYSLANYNGSFVT
amyloid nucleation score: inactive

IFEVYDVIT
amyloid nucleation score: inactive

IFHLKIAYFPNYGRITLYYL
amyloid nucleation score: 1.65 ± 0.091

IFIIIGRRFIILKSLVRLHF
amyloid nucleation score: inactive

IFINRKE
amyloid nucleation score: -0.431 ± 0.76

IFKKLSFL
amyloid nucleation score: inactive

IFNKVSLYNEMLVWVLTWSW
amyloid nucleation score: inactive

IFNMSQYNKLECTLTLY
amyloid nucleation score: inactive

IFSHSSPYNTPRK
amyloid nucleation score: inactive

IFVKDFLII
amyloid nucleation score: inactive

IFVVSNFISSSMNYRSYCYL
amyloid nucleation score: inactive

IGCCFSVLKNLLFSFDVKQF
amyloid nucleation score: inactive

IGFCKDLVTCRTDYYAQLDR
amyloid nucleation score: inactive

IGFIIGDVFAA
amyloid nucleation score: inactive

IGGDSRHI
amyloid nucleation score: inactive

IGGEYGFLSCYSIGVTTFYV
amyloid nucleation score: inactive

IGIDMMMESKLYSCCNLDMY
amyloid nucleation score: 1.38 ± 0.078

IGIEFLNLKHLPSYLLSVRF
amyloid nucleation score: inactive

IGKRSVRVIDPVFYKPFANM
amyloid nucleation score: inactive

IGLSLE
amyloid nucleation score: inactive

IGMVHCIAEDARRLLLYIWV
amyloid nucleation score: inactive

IGRNSSKIFLFFCSCMRMFS
amyloid nucleation score: 2.95 ± 0.077

IGVTPDHRSMLGRNLCLC
amyloid nucleation score: inactive

IGYKLNFCASILDFSYCKIY
amyloid nucleation score: 1.07 ± 0.19

IHIGTPFRGSHTFASVRRK
amyloid nucleation score: inactive

IHKCYT
amyloid nucleation score: inactive
